Test results published in patent US20230272113A1.

B1: FL-43 (scFv)
scFv: QVTLKESGPVLVKPTETLTLTCTVSGFSFRNARMGVSWIRQPPGKCLEWLAHIFSNDEKSYSTSLKSRLTISKDTSKSQVVLTLTNMDPVDTATYFCARMPEYSSGWSGAFDIWGQGTMVTVSSGGGGSGGGGSGGGGSDIQMTQSPSSLSASVGDRVTITCRASQGIRNDLVWYQQKPGKAPKRLIYGTSTLQSGVPSRFSGSGSGTEFTLTISSLQPEDFATYYCLQHNSYPLTFGCGTKVEIK
B2: FL-44 (scFv)
scFv: QVTLKESGPVLVKPTETLTLTCTVSGFSFRNARMGVSWIRQPPGKCLEWLAHIFSNDEKSYSTSLKSRLTISKDTSKSQVVLTLTNMDPVDTATYFCARMPEYSSGWSGAFDIWGQGTMVTVSSGGGGSGGGGSGGGGSDIQMTQSPSSLSASVGDRVTITCRTSQGIRNDLVWYQQKPGKAPKRLIYAASTLQSGVPSRFSGSGSGTEFTLTISSLQPEDFATYFCLQHYSYPLTFGCGTKVEIK
B3: FL-45 (scFv)
scFv: QVTLKESGPALVKPTQTLTLTCTFSGFSLSNARMGVSWIRQPPGKCLEWLAHIFSNDEKSYRTSLKSRLTISKDTSKSQVVLTMTNMDPVDTATYYCARIVGYGSGWYAYFDYWGQGTLVTVSSGGGGSGGGGSGGGGSDIQMTQSPSSLSASVGDRVTITCRASQGIRNDLGWYQQKPGKAPKRLIYAASSLQSGVPSRFSGSGSGTEFTLTISSLQPEDFATYYCLQHNSYPLTFGCGTKVEIK
B4: FL-46 (scFv)
scFv: QVTLKESGPVLVKPTQTLTLTCTFSGFSLSNARMGVSWIRQPPGKCLEWLALIYWNDDKRYSPSLKSRLTITKDTSKNQVVLTMTNMDPVDTATYYCARMVGYGSGWYAYFDYWGQGTLVTVSSGGGGSGGGGSGGGGSDIQMTQSPSSLSASVGDRVTITCRASQGIRNDLGWYQQKPGKAPKRLIYAASSLQSGVPSRFSGSGSGTEFTLTISSLQPEDFATYYCLQHNSYPLTFGCGTKVEIK
B5: FL-47 (scFv)
scFv: QVTLKESGPALVKPTQTLTLTCTFSGFSLSNARMGVSWIRQPPGKCLEWLAHIFSNDEKSYSTSLKSRLTISKDTSKSQVVLTMTDMDPEDTATYYCARIVGYGTGWYGFFDYWGQGILVTVSSGGGGSGGGGSGGGGSDIQMTQSPSSLSASVGDRVTITCRTSQGIRNDLGWYQQKPGKAPKRLIYAASSLQSGVPSRFSGSGSGTEFTLTISSLQPEDFATYYCLQHNSYPLTFGCGTKVEIK
B6: FL-48 (scFv)
scFv: QVTLKESGPMLVKPTETLTLTCTFSGFSLRNARMGVSWIRQPPGKCLEWLAHIFWNDEKSYSTSLKSRLTISKDTSKSQVVLTMTNMDPVDTATYYCARIPYYGSGSYNYGMDVWGQGTTVTVSSGGGGSGGGGSGGGGSDIQMTQSPSSLSASVGDRVTITCRASQGIRNDLGWYQQKPGKAPKRLIYAASSLQSGVPSRFSGSGSGTEFTLTISSLQPEDFATYYCLQHNTYPLTFGCGTKVDIK
B7: FL-49 (scFv)
scFv: QVTLKESGPTLVKPTETLTLTCTVSGFSLNNARMGVSWIRQPPGKCLEWLAHIFSNDEKSYSTSLKNRLTISKDSSKTQVVLTMTNVDPVDTATYYCARIVGYGTGWFGYFDYWGQGTQVTVSSGGGGSGGGGSGGGGSDIQMTQSPSSLSASVGDRVTITCRASQDIRTDLAWYQQKPGKAPKRLIYAASSLQSGVPSRFSGSGSGTEFTLTISSLQPEDFATYYCLQHNRYPLTFGCGTKVDIK
B8: FL-50 (scFv)
scFv: QVTLKESGPTLVKPTETLTLTCTVSGFSLSNARMGVSWIRQPPGKCLEWLAHIFSNDEKSYSTSLKSRLTISKDTSKSQVVLTMTNMDPVDTATYYCARIPGYGGNFYYHYYGMDVWGQGTTVTVSSGGGGSGGGGSGGGGSDIQMTQSPSSLSASVGDRVTITCRASQGIRNDLAWYQQKPGKAPKRLIYAASTVQSGVPSRFSGSGSGTEFALTISSLQPEDFATYYCLQHNSFPWTFGCGTKVDIK
B9: FL-51 (scFv)
scFv: QVTLKESGPTLVKPTETLTLTCTVSGFSLRNVRMGVSWIRQPPGKCLEWLAHISSNDEKSYSTSLRSRLTISTDTSKSQVVLTMTNMDPVDTATYYCARMPGDSNTWRGFFDYWGQGTLVTVSSGGGGSGGGGSGGGGSEIVMTQSPATLSVSPGERATLSCRTSQSVNNNLAWYQQKPGQAPRLLIYGASTRATGIPARFSGSGSGTEFTLTISSLQPEDFATYYCLQHNSYPLTFGCGTKVEIK
B10: FL-52 (scFv)
scFv: QVTLKESGPTLVKPTETLTLTCTFSGFSLRYARMGVSWIRQPPGKCLEWLAHIFSNDEKSYSTSLKSRLTISKDTSKSQVVLTLTNMDPVDTATYFCARMPEYSSGWSGAFDIWGQGTMVTVSSGGGGSGGGGSGGGGSDIQMTQSPSSLSASVGDRVTITCRASQDIRNDLAWYQQKPGKAPKRLIYAASSLQSGVPSRFSGSGSGTEFTLTISSLQPEDFATYYCLQHNSYPLTFGCGTKLEIK
B11: FL-53 (scFv)
scFv: QVQLVESGGGVVQPGRSLRLSCAASGFTFSSYGMHWVRQAPGKCLEWVAVISYDGSNEFYADSVKGRFTISRDNSKNTLYLQMNSLRAEDTAVYYCARGGEITMVRGVIGYYYYGMDVWGQGTTVTVSSGGGGSGGGGSGGGGSDIQMTQSPSSLSASVGDRVTITCRTSQSISSYLNWYQQKPGKAPKLLIYAASSLQSGVPSRFSGSGSGTEFTLTISSLQPEDFATYYCLQHNSYPLTFGCGTKVDIK
B12: FL-54 (scFv)
scFv: QVQLVESGGGVVQPGRSLRLSCAASGFTFSSYGMHWVRQAPGKCLEWVAVISYDGSNEFYADSVKGRFTISRDNSKNTLYLQMNSLRAEDTAVYYCARGGEITMVRGVIGYYYYGMDVWGQGTTVTVSSGGGGSGGGGSGGGGSEIVMTQSPATLSVSPGERATLSCRASQGVRNNLVWYQQKPGQAPRLLIYGASTRATGIPARFSGSGSGTEFTLTISSLQSEDFATYYCLQHNSYPLTFGCGTKVEIK
B13: FL-56 (scFv)
scFv: QVTLKESGPVLVKPTETLTLTCTVSGFSLRNVRMGVSWIRQPPGKALEWLAHIFSNDEKLYTTSLKSRLTISKDTSKSQVVLTMTNMDPEDTATYYCARIVGYGTGWYGYFDYWGQGTQVTVSSGGGGSGGGGSGGGGSDIQMTQSPSSLSASIGDRVTITCRASQDIRDDLGWYQREPGKAPKRLIYATSIRQSGVPSRFSGSGSGTEFTLTISGLQPEDFATYFCLQHHSFPLTFGGGTKVDIK
B14: FL-57 (scFv)
scFv: QVTLKESGPTLVKPTETLTLTCTFSGFSLRYARMGVSWIRQPPGKALEWLAHISSNDEKSFSTALESRLTISTDTSKSQMVLTMTNVDPVDTATYYCARMPGDSNTWRGFFDYWGQGTLVTVSSGGGGSGGGGSGGGGSEIVMTQSPGTLSLSPGERATLSCRTSQTVTNSYIAWYQQRPGQAPRLLIYGTSTRATGIPDRFSGSGSGTDFTLTISRLEPEDFAVYYCQKYGSSPLTFGGGTKLEIK
B15: FL-58 (scFv)
scFv: QVTLKESGPTLVKPTETLTLTCTVSGFSLRNVRMGVSWIRQPPGKALEWLAHISSNDEKSYSTSLRSRLTISTDTSKSQVVLTMTNMDPVDTATYYCARMPGDSNTWRGFFDYWGQGTLVTVSSGGGGSGGGGSGGGGSEIVMTQSPATLSVSPGERATLSCRTSQSVNNNLAWYQQKPGQAPRLLIYGASTRATGIPARFSGSGSGTEFTLTISSLQPEDFATYYCLQHNSYPLTFGGGTKVEIK
B16: FL-59 (scFv)
scFv: QVTLKESGPMLVKPTETLTLTCTVSGFSLRNVRMGVSWIRQPPGKALEWLAHIFSNDEKSYSTSLKSRLTISKDTSKSQVVLTLTNMDPVDTATYFCARMPEYSSGWSGAFDIWGQGTMVTVSSGGGGSGGGGSGGGGSDIQMTQSPSSLSASVGDRVTITCRASQDIRDDLGWYQQKPGNAPKRLIYGASTLQSGVPSRFSGSGSGTEFTLTISSLQPEDFATYYCLQHNSYPLTFGGGTRLEIK
B17: FL-60 (scFv)
scFv: QVTLKESGPALVKPTQTLTLTCTFSGFSLSNARMGVSWIRQPPGKALEWLAHIFSNDEKSYSTSLKSRLTISKDTSKRQVVLTMTNMDPVDTATYYCARMVGYGSGWYAYFDYWGQGTLVTVSSGGGGSGGGGSGGGGSDIVMTQTPLSLSVTPGQPASISCRSSQSLLHSNGYNYLYWYLQKPGQPPQLLIYEVSNRFSGVPDRFSGSGSGTDFTLKISRVEAEDVGVYYCMQALQTPLTFGGGTKVEIK
B18: FL-61 (scFv)
scFv: QVQLVESGGGVVQPGRSLRLSCAASGFTFSSYGMHWVRQAPGKGLEWVAVISYDGSNEFYADSVKGRFTISRDNSKNTLYLQMNSLRAEDTAVYYCARGGEITMVRGVIGYYYYGMDVWGQGTTVTVSSGGGGSGGGGSGGGGSDIQMTQSPSSLSASVGDRVTITCRASQSISSYLNWYQQKPGKAPKLLIYAASSLQSGVPSRFSGSGSGTEFTLTISSLQPEDFATYYCLQHNSYPLTFGGGTKVEIK
B19: FL-62 (scFv)
scFv: QVQLVESGGGVVQPGRSLRLSCAASGFTFSSYGMHWVRQAPGKGLEWVAVISYDGSNEFYADSVKGRFTISRDNSKNTLYLQMNSLRAEDTAVYYCARGGEITMVRGVIGYYYYGMDVWGQGTTVTVSSGGGGSGGGGSGGGGSEIVMTQSPATLSVSPGERATLSCRASQGVRNNLVWYQQKPGQAPRLLIYGASTRATGIPARFSGSGSGTEFTLTISSLQSEDFATYYCLQHNSYPLTFGGGTKVEIK
B20: FL-63 (scFv)
scFv: QVQLVESGGGVVQPGRSLRLSCAASGFTFSSYGMHWVRQAPGKGLEWVAVISYDGSNEFYADSVKGRFTISRDNSKNTLYLQMNSLRAEDTAVYYCARGGEITMVRGVIGYYYYGMDVWGQGTTVTVSSGGGGSGGGGSGGGGSDIQMTQSPSSLSASVGDRVTITCRTSQSISSYLNWYQQKPGKAPKLLIYAASSLQSGVPSRFSGSGSGTEFTLTISSLQPEDFATYYCLQHNSYPLTFGGGTKVDIK

The binders below were run against human FLT3 on transfected CHO cells (human) (UniProt P36888) (assay: FACS, scFv on CHO-human FLT3 cells pre-incubated with FLT3 ligand (competitor)).
B1 was tested, and the median [+ligand]/median [w/o ligand]*100 was > 75%. With B2 the median [+ligand]/median [w/o ligand]*100 was > 75%. For B3, the median [+ligand]/median [w/o ligand]*100 was > 75%. With B4 the median [+ligand]/median [w/o ligand]*100 was > 75%. B5 was tested, and the median [+ligand]/median [w/o ligand]*100 was > 75%. B6 was tested, and the median [+ligand]/median [w/o ligand]*100 was > 75%. For B7, the median [+ligand]/median [w/o ligand]*100 was > 75%. In the case of B8, the median [+ligand]/median [w/o ligand]*100 is reported as > 75%. For B9, the median [+ligand]/median [w/o ligand]*100 was > 75%. In the case of B10, the median [+ligand]/median [w/o ligand]*100 is reported as > 75%. B11 was tested, and the median [+ligand]/median [w/o ligand]*100 was > 75%. In the case of B12, the median [+ligand]/median [w/o ligand]*100 is reported as > 75%. For B13, the median [+ligand]/median [w/o ligand]*100 was > 75%. In the case of B14, the median [+ligand]/median [w/o ligand]*100 is reported as > 75%. With B15 the median [+ligand]/median [w/o ligand]*100 was > 75%. B16 was tested, and the median [+ligand]/median [w/o ligand]*100 was > 75%. B17 was tested, and the median [+ligand]/median [w/o ligand]*100 was > 75%. With B18 the median [+ligand]/median [w/o ligand]*100 was > 75%. In the case of B19, the median [+ligand]/median [w/o ligand]*100 is reported as > 75%. With B20 the median [+ligand]/median [w/o ligand]*100 was > 75%.
